The text below walks through data of patent publication US20230272055A1 (Incyte, published 2023).

Sequences and labels used below:
B1: anti-mutCALR antibody clone 75 (antibody, human IgG1, lambda, N297A, V domains shown)
VH: EVQLVQSGAEVKKPGASVKVSCKVSGYTLTELSMQWVRQAPGKGLEWMGGFDPDDGETMYAEKFQGRLTVTEDTSTDTVYMELRSLTSEDTALYFCATSPGYDFFDYWGQGTLVTVSS
VL: SYVLTQPPSVSVAPGKTARITCGGNNIGSKSVHWYQQKPGQAPVLVVYDDSDRPSGIPERFSGSNSGNTATLTISRVEAGDEADYYCQVWDSSNDLLIFGGGTKLTVLG
notes: human IgG1 N297A variant of clone 6
B2: anti-mutCALR antibody clone 131 (antibody, human IgG1, lambda, N297A, V domains shown)
VH: B1 VH with D55S, R84S, T87R, L93V
VL: B1 VL with V3E, N25D, S75N
notes: human IgG1 N297A variant of clone 15
B3: anti-mutCALR antibody clone 134 (antibody, human IgG1, lambda, N297A)
heavy: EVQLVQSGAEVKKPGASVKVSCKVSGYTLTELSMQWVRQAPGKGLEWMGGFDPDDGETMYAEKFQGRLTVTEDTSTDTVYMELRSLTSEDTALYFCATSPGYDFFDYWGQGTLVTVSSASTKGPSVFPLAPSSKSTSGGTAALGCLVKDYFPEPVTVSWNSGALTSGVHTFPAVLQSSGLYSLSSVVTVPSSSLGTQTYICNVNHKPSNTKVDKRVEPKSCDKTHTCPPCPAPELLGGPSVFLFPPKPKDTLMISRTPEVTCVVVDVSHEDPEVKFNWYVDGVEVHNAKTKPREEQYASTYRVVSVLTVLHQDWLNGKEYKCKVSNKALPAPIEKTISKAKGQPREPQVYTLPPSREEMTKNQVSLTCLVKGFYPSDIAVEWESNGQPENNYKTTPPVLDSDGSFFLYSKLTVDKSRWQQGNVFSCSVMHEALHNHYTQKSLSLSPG
light: SYVLTQPPSVSVAPGKTARITCGGDNIGSKSVHWYQQKPGQAPVLVVYDDSDRPSGIPERFSGSNSGNTATLTISRVEAGDEADYYCQVWDSSNDLLIFGGGTKLTVLGQPKAAPSVTLFPPSSEELQANKATLVCLISDFYPGAVTVAWKADSSPVKAGVETTTPSKQSNNKYAASSYLSLTPEQWKSHRSYSCQVTHEGSTVEKTVAPTECS
notes: as for B2
B4: anti-mutCALR antibody clone 129 (antibody, human IgG1, lambda, N297A, V domains shown)
VH: B1 VH with R84S, T87R, L93V
VL: B1 VL with V3E, N25D, S75N
notes: as for B2
B5: anti-mutCALR antibody clone 132 (antibody, human IgG1, lambda, N297A, V domains shown)
VH: B1 VH with D55E, R84S, T87R, L93V
VL: B1 VL with V3E, N25D, S75N
notes: as for B2
B6: anti-mutCALR antibody clone 82 (antibody, human IgG1, lambda, N297A, V domains shown)
VH: B1 VH with D55S, R84S, T87R, L93V
VL: B1 VL
notes: as for B1
B7: anti-mutCALR antibody clone 126 (antibody, human IgG1, lambda, N297A, V domains shown)
VH: B1 VH with D55S
VL: B1 VL with V3E, N25D, S75N
notes: as for B2
B8: anti-mutCALR antibody clone 76 (antibody, human IgG1, lambda, N297A, V domains shown)
VH: B1 VH with D55A
VL: B1 VL
notes: as for B1
B9: anti-mutCALR antibody clone 128 (antibody, human IgG1, lambda, N297A, V domains shown)
VH: B1 VH with G56A
VL: B1 VL with V3E, N25D, S75N
notes: as for B2
B10: anti-mutCALR antibody clone 135 (antibody, human IgG1, lambda, N297A, V domains shown)
VH: B1 VH with D55A
VL: B1 VL with N25D
notes: as for B2
B11: anti-mutCALR antibody clone 80 (antibody, human IgG1, lambda, N297A, V domains shown)
VH: B1 VH with R84S, T87R, L93V
VL: B1 VL
notes: as for B1
B12: anti-mutCALR antibody clone 124 (antibody, human IgG1, lambda, N297A)
heavy: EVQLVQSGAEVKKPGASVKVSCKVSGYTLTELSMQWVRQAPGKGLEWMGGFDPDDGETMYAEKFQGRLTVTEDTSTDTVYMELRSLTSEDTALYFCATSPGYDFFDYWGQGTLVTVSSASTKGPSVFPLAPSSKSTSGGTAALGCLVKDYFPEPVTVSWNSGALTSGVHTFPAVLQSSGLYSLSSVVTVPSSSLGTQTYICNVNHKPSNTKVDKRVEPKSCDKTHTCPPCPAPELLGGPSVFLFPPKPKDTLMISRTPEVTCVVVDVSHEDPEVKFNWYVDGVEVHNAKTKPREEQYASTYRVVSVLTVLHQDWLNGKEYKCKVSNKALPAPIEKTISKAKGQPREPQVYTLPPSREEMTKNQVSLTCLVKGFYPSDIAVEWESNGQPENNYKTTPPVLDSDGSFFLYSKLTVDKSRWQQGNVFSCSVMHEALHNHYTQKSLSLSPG
light: B3 light with V3E, S75N
notes: as for B2
B13: anti-mutCALR antibody clone 125 (antibody, human IgG1, lambda, N297A, V domains shown)
VH: B1 VH with D55A
VL: B1 VL with V3E, N25D, S75N
notes: as for B2
B14: anti-mutCALR antibody clone 133 (antibody, human IgG1, lambda, N297A, V domains shown)
VH: B1 VH with G56A, R84S, T87R, L93V
VL: B1 VL with V3E, N25D, S75N
notes: as for B2
B15: anti-mutCALR antibody clone 77 (antibody, human IgG1, lambda, N297A, V domains shown)
VH: B1 VH with D55S
VL: B1 VL
notes: as for B1
B16: anti-mutCALR antibody clone 78 (antibody, human IgG1, lambda, N297A, V domains shown)
VH: B1 VH with D55E
VL: B1 VL
notes: as for B1
B17: anti-mutCALR antibody clone 81 (antibody, human IgG1, lambda, N297A, V domains shown)
VH: B1 VH with D55A, R84S, T87R, L93V
VL: B1 VL
notes: as for B1
B18: anti-mutCALR antibody clone 79 (antibody, human IgG1, lambda, N297A, V domains shown)
VH: B1 VH with G56A
VL: B1 VL
notes: as for B1
B19: anti-mutCALR antibody clone 84 (antibody, human IgG1, lambda, N297A, V domains shown)
VH: B1 VH with G56A, R84S, T87R, L93V
VL: B1 VL
notes: as for B1
B20: anti-mutCALR antibody clone 130 (antibody, human IgG1, lambda, N297A, V domains shown)
VH: B1 VH with D55A, R84S, T87R, L93V
VL: B1 VL with V3E, N25D, S75N
notes: as for B2
B21: anti-mutCALR antibody clone 83 (antibody, human IgG1, lambda, N297A, V domains shown)
VH: B1 VH with D55E, R84S, T87R, L93V
VL: B1 VL
notes: as for B1

Numbering of substitutions follows the chain as printed. Numbers in names are those of the source.

This assay addresses T1, Recombinant MBP-mutCALR Type 1 fusion protein (human).
T1 construct: custom made at Cepter; also called recombinant mutCALR protein
Nature of the assay: SPR, IgG captured, 1:1 fit, Exp. 2. The protocol: Experiment 2: Recombinant MBP-mutCALR Type 1 fusion protein was custom made at Cepter (cepterbiopartners.com). Data for the interaction of antibodies with recombinant mutCALR protein were collected at 25° C. on a Biacore 8K instrument (Cytiva, Marlborough, Mass.), and all reagents were obtained from Cytiva unless otherwise specified. The experiments were conducted using Tris-buffered saline (pH 7.2), 0.005% Surfactant P20, 1 mM CaCl₂) as running buffer. To prepare the capture surfaces, anti-human IgG (Fc) antibodies (Product #29234600) was amine-coupled onto a CM4 chip (Product #BR100534) under standard conditions using an Amine Coupling Kit (Product #BR100050). […] The kinetics parameters were obtained by applying 1:1 binding model to fit the data from multiple-cycle injection experiments using Biacore Insight Evaluation software.
On the technique in general: SPR reads the build-up and loss of mass on a sensor chip optically.
Turning to B1, the Kd (commonly the free concentration of one partner at which half of the binding sites on the other are occupied at equilibrium, for simple one-to-one binding) came out at 0.637 nM; the koff (commonly a measure of how fast the partners let go of each other) came to 0.0039 s⁻¹; the kon (commonly a measure of how fast the partners come together) came to 6.12e+06 M⁻¹ s⁻¹.

For B2, the Kd was 4.83 nM, the koff turned out to be 0.00481 s⁻¹ and the kon was 996000 M⁻¹ s⁻¹.

Regarding B3, the Kd is 1.12 nM, the koff stood at 0.00142 s⁻¹ and the kon was 1.27e+06 M⁻¹ s⁻¹.

Regarding B4, the Kd was found to be 0.53 nM, the koff came out at 0.00527 s⁻¹ and the kon was 9.94e+06 M⁻¹ s⁻¹.

Turning to B5, the Kd stood at 2.16 nM, the koff is 0.00244 s⁻¹ and the kon was determined as 1.13e+06 M⁻¹ s⁻¹.

Take B6: the dissociation constant (Kd) stood at 6.23 nM, the koff was determined as 0.00475 s⁻¹ and the kon turned out to be 762000 M⁻¹ s⁻¹.

B7: the Kd is 1.19 nM, the off-rate (koff) turned out to be 0.00153 s⁻¹ and the kon turned out to be 1.29e+06 M⁻¹ s⁻¹.

Take B8: the dissociation constant (Kd) was found to be 4.9 nM, the koff was determined as 0.0155 s⁻¹ and the kon came to 3.16e+06 M⁻¹ s⁻¹.

For B9, the Kd was found to be 1.61 nM, the koff was 0.00207 s⁻¹ and the kon worked out at 1.29e+06 M⁻¹ s⁻¹.

Turning to B10, the Kd came out at 5.17 nM, the koff amounted to 0.00512 s⁻¹ and the kon was 991000 M⁻¹ s⁻¹.

On to B11, for which the Kd is 0.638 nM and the koff was found to be 0.00248 s⁻¹.

Turning to B12, the Kd was determined as 1.04 nM, the koff worked out at 0.00128 s⁻¹ and the kon was 1.23e+06 M⁻¹ s⁻¹.

Regarding B13, the Kd was 4.76 nM, the koff was found to be 0.0154 s⁻¹ and the kon came to 3.23e+06 M⁻¹ s⁻¹.

As to B14, the Kd worked out at 0.826 nM, the koff worked out at 0.00702 s⁻¹ and the kon came to 8.51e+06 M⁻¹ s⁻¹.

Consider B15, for which the Kd stood at 5.61 nM, the koff worked out at 0.0175 s⁻¹ and the kon is 3.13e+06 M⁻¹ s⁻¹.

Turning to B16, the equilibrium dissociation constant (Kd) turned out to be 2.75 nM, the koff came out at 0.0024 s⁻¹ and the on-rate constant (kon) was found to be 873000 M⁻¹ s⁻¹.

In the case of B17, the Kd worked out at 6.62 nM, the koff amounted to 0.00494 s⁻¹ and the kon was determined as 746000 M⁻¹ s⁻¹.

In the case of B18, the dissociation constant (Kd) was determined as 1.39 nM, the dissociation rate constant (koff) was 0.00631 s⁻¹ and the kon came to 4.53e+06 M⁻¹ s⁻¹.

Regarding B19, the Kd was found to be 2.01 nM, the koff came to 0.0018 s⁻¹ and the kon is 892000 M⁻¹ s⁻¹.

Consider B20, for which the equilibrium dissociation constant (Kd) was 4.71 nM, the koff is 0.00509 s⁻¹ and the kon was 1.08e+06 M⁻¹ s⁻¹.

With B21, the Kd was 1.76 nM, the off-rate constant (koff) stood at 0.00992 s⁻¹ and the kon turned out to be 5.62e+06 M⁻¹ s⁻¹.
